Reference: PMC5187433, “A bromodomain–DNA interaction facilitates acetylation-dependent bivalent nucleosome recognition by the BET protein BRDT” (Nature Communications, 2016)
pKd: −log10 of the molar value.

Assays:
Assay in all cases: ITC
N-BRDT(1) (Homo sapiens) = N-BRDT(1) (Homo sapiens) (UniProt Q58F21); conditions: EMSA: 20 mM Tris pH 7.5, 100 mM NaCl, 5 mM DTT, 0.5 mM EDTA, 4 C, ITC: 20 mM Tris pH 8.0, 150 mM NaCl, 1 mM EDTA, 1 mM TCEP, 20 C, NMR at 34 C
[1] = molecular target: N-BRDT(1) 3KS K37S;K41S;K45S (Homo sapiens) (UniProt Q58F21); conditions: histone H4K5acK8ac (H4 A15C ligation); EMSA: 20 mM Tris pH 7.5, 100 mM NaCl, 5 mM DTT, 0.5 mM EDTA, 4 C; ITC: 20 mM Tris pH 8.0, 150 mM NaCl, 1 mM EDTA, 1 mM TCEP, 20 C; NMR at 34 C
[2] = molecular target: N-BRDT(1) K41S K41S (Homo sapiens) (UniProt Q58F21); conditions: histone H4K5acK8ac (H4 A15C ligation); EMSA: 20 mM Tris pH 7.5, 100 mM NaCl, 5 mM DTT, 0.5 mM EDTA, 4 C; ITC: 20 mM Tris pH 8.0, 150 mM NaCl, 1 mM EDTA, 1 mM TCEP, 20 C; NMR at 34 C
[3] = molecular target: N-BRDT(1) 3KE K37E;K41E;K45E (Homo sapiens) (UniProt Q58F21); conditions: histone H4K5acK8ac (H4 A15C ligation); EMSA: 20 mM Tris pH 7.5, 100 mM NaCl, 5 mM DTT, 0.5 mM EDTA, 4 C; ITC: 20 mM Tris pH 8.0, 150 mM NaCl, 1 mM EDTA, 1 mM TCEP, 20 C; NMR at 34 C

| Sequence | pKd (N-BRDT(1) (Homo sapiens); H4K5acK8ac tail ligated to H3 core, WT H2A, H2B, H4) | pKd [1] | pKd (N-BRDT(1) (Homo sapiens); histone H4K5acK8ac (H4 A15C ligation)) | pKd [2] | binding signal (fold reduced affinity vs WT) [3] |
| --- | --- | --- | --- | --- | --- |
| TCGGGGGCCGCCCTGGAGAATCCCGGTGCCGAGGCCGCTCAATTGGTCGTAGACAGCTCTAGCACCGCTTAAACGCACGTACGCGCTGTCCCCCGCGTTTTAACCGCCAAGGGGATTACTCCCTAGTCTCCAGGCACGTGTCAGATATATACATCCTGTGCATGTAC / CCGAGTACATGCACAGGATGTATATATCTGACACGTGCCTGGAGACTAGGGAGTAATCCCCTTGGCGGTTAAAACGCGGGGGACAGCGCGTACGTGCGTTTAAGCGGTGCTAGAGCTGTCTACGACCAATTGAGCGGCCTCGGCACCGGGATTCTCCAGGGCGGCCC [chimeric H3-H4K5acK8ac nucleosome (167 bp Widom)] | 5.30 |  |  |  |  |
| TCGGGGGCCGCCCTGGAGAATCCCGGTGCCGAGGCCGCTCAATTGGTCGTAGACAGCTCTAGCACCGCTTAAACGCACGTACGCGCTGTCCCCCGCGTTTTAACCGCCAAGGGGATTACTCCCTAGTCTCCAGGCACGTGTCAGATATATACATCCTGTGCATGTAC / CCGAGTACATGCACAGGATGTATATATCTGACACGTGCCTGGAGACTAGGGAGTAATCCCCTTGGCGGTTAAAACGCGGGGGACAGCGCGTACGTGCGTTTAAGCGGTGCTAGAGCTGTCTACGACCAATTGAGCGGCCTCGGCACCGGGATTCTCCAGGGCGGCCC [H4K5acK8ac nucleosome (167 bp Widom)] |  | 5.05 | 5.70 | 5.15 | 5 |
